Assay in all cases: NMR titration
The target in experiment [1] is Itk SH3 domain (wild type).
Experiment [2] has as its target Itk SH3(E189Q) domain.
Experiment [3] addresses Itk SH3(E189K) domain.
For experiment [4], the target named is Itk SH3(Y180E) domain.
For experiment [5], the target named is Itk SH2(I282A) domain.

Square brackets hold non-standard residues; d marks the D form. pY = N[C@@H](Cc1ccc(OP(=O)(O)O)cc1)C(=O)O

The Kd is the concentration at which binding is half-saturated. High values mean weaker binding, low ones tighter binding.

“Itk SH2 domain (wild type) (domain or fragment)”: the results for the Kd in experiment [1] and in experiment [2] were 0.67 mM and 2.05 mM, respectively. “Itk SH2(R332A) domain (domain or fragment)”: in experiment [1], the equilibrium dissociation constant (Kd) is 1.8 mM. On to “Itk SH2(K309E) domain (domain or fragment)”, for which the values for the Kd in experiment [1] and in experiment [3] were 1.85 mM and 1.08 mM, respectively. “Itk SH2(K280A) domain (domain or fragment)” had a fold drop in affinity against SH3(Y180E)/wild type SH2 in experiment [4] of 10 fold.

B1: phosphopeptide derived from Slp76 (Ac-ADpYEPP-NH2) (peptide)
peptide: Ac-AD[pY]EPP-NH2
SMILES: CC(=O)N[C@@H](C)C(=O)N[C@@H](CC(=O)O)C(=O)N[C@@H](Cc1ccc(OP(=O)(O)O)cc1)C(=O)N[C@@H](CCC(=O)O)C(=O)N1CCC[C@H]1C(=O)N1CCC[C@H]1C(N)=O
The molecule B1 had a Kd in experiment [5] of 1 mM.

For the origin of these results see publication PMC2810249.
